Reference: article PMC5809584, “Plastic roles of phenylalanine and tyrosine residues of TLS/FUS in complex formation with the G-quadruplexes of telomeric DNA and TERRA”

Target: RGG3 of TLS/FUS (UniProt P35637 454-526)
Assay: NMR CSP; equivalent amount, 50 mM KCl; NMR: 20 mM K-phosphate pH 6.2, 50 mM KCl, 1 mM DTT, 0.1 mM DSS, 5% D2O, 298 K; FA: 20 C (nucleic acids annealed in 20 mM K-phosphate pH 6.2, 50 mM KCl); EMSA: 50 mM Tris-HCl pH 7.5, 100 mM KCl, 0.5 mM EDTA, 0.5 mM DTT, 0.2 mg/mL BSA, 1 ug/mL calf thymus DNA, 20 C
Conditions: protein: recombinant; tags: GST removed with PreScission; residual GST-vector residues at N-terminus; G4, heterogeneous

Chain of RGG3 of TLS/FUS (P35637 454-526): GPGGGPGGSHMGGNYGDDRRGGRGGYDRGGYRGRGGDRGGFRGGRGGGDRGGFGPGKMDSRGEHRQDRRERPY

B1: TERRA24 (structured_RNA)
RNA: UUAGGGUUAGGGUUAGGGUUAGGG
binding result: binds
